{"source": "paper PMC12102759", "about": "(2025)", "parents": {"B1": {"name": "PIP5K1C peptide 642-657 (Phosphatidylinositol 4-phosphate 5-kinase type-1 gamma), 16-mer library wild type / TLN1 PTB (TLN1 Phosphotyrosine-binding (PTB) domain, residues 309-401) (parent complex)", "chain 1": "TDERSWVYSPLHYSAQ", "chain 2": "GVSFFLVKEKMKGKNKLVPRLLGITKECVMRVDEKTKEVIQEWNLTNIKRWAASPKSFTLDFGDYQDGYYSVQTTEGEQIAQLIAGYIDIILK"}, "B2": {"name": "RNF115 peptide 67-82 (E3 ubiquitin-protein ligase RNF115), 16-mer library wild type / MDM2 SWIB (MDM2 SWIB/MDM2 domain, residues 17-125) (parent complex)", "chain 1": "TTTHFAELWGHLDHTM", "chain 2": "SQIPASEQETLVRPKPLLLKLLKSVGAQKDTYTMKEVLFYLGQYIMTKRLYDEKQQHIVYCSNDLLGDLFGVPSFSVKEHRKIYTMIYRNLVVVNQQESSDSGTSVSEN"}}, "data": [{"variants_of": "B1", "assay": "proteomic peptide phage display deep mutational scan (ProP-PD DMS): M13 P8 16-mer library selected against immobilised GST-tagged bait for four days (rounds), NGS of the eluted pools per day and pseudo-replica; bait immobilised on MaxiSorp plates (10 µg), library pre-cleared on GST, 2 h binding at 4 °C, five washes; one round per day, days 1-4; value from days 2 and 3", "values": [{"variant": "chain 1 A15E", "screen value": "0.00381 average fractional NGS count over selection days 2 and 3 (reads of this peptide / all reads for the bait, averaged over …"}, {"variant": "chain 1 A15N", "screen value": "0.000427 average fractional NGS count over selection days 2 and 3 (reads of this peptide / all reads for the bait, averaged over …"}, {"variant": "chain 1 A15W", "screen value": "0.00297 average fractional NGS count over selection days 2 and 3 (reads of this peptide / all reads for the bait, averaged over …"}, {"variant": "chain 1 A15T", "screen value": "0.00116 average fractional NGS count over selection days 2 and 3 (reads of this peptide / all reads for the bait, averaged over …"}, {"variant": "chain 1 A15R", "screen value": "0.000696 average fractional NGS count over selection days 2 and 3 (reads of this peptide / all reads for the bait, averaged over …"}, {"variant": "chain 1 A15H", "screen value": "0.000752 average fractional NGS count over selection days 2 and 3 (reads of this peptide / all reads for the bait, averaged over …"}, {"variant": "chain 1 S14L", "screen value": "0.00127 average fractional NGS count over selection days 2 and 3 (reads of this peptide / all reads for the bait, averaged over …"}, {"variant": "chain 1 S14A", "screen value": "0.00151 average fractional NGS count over selection days 2 and 3 (reads of this peptide / all reads for the bait, averaged over …"}, {"variant": "chain 1 S14I", "screen value": "0.000211 average fractional NGS count over selection days 2 and 3 (reads of this peptide / all reads for the bait, averaged over …"}, {"variant": "chain 1 S14D", "screen value": "0.00662 average fractional NGS count over selection days 2 and 3 (reads of this peptide / all reads for the bait, averaged over …"}, {"variant": "chain 1 S14K", "screen value": "0.000852 average fractional NGS count over selection days 2 and 3 (reads of this peptide / all reads for the bait, averaged over …"}, {"variant": "chain 1 S14P", "screen value": "0.000401 average fractional NGS count over selection days 2 and 3 (reads of this peptide / all reads for the bait, averaged over …"}, {"variant": "chain 1 D2N", "screen value": "0.000972 average fractional NGS count over selection days 2 and 3 (reads of this peptide / all reads for the bait, averaged over …"}, {"variant": "chain 1 D2P", "screen value": "0.00102 average fractional NGS count over selection days 2 and 3 (reads of this peptide / all reads for the bait, averaged over …"}, {"variant": "chain 1 D2T", "screen value": "0.00067 average fractional NGS count over selection days 2 and 3 (reads of this peptide / all reads for the bait, averaged over …"}, {"variant": "chain 1 D2Q", "screen value": "0.00198 average fractional NGS count over selection days 2 and 3 (reads of this peptide / all reads for the bait, averaged over …"}, {"variant": "chain 1 S9N", "screen value": "0.0022 average fractional NGS count over selection days 2 and 3 (reads of this peptide / all reads for the bait, averaged over …"}, {"variant": "chain 1 S9M", "screen value": "0.000276 average fractional NGS count over selection days 2 and 3 (reads of this peptide / all reads for the bait, averaged over …"}, {"variant": "chain 1 S9D", "screen value": "7.45e-05 average fractional NGS count over selection days 2 and 3 (reads of this peptide / all reads for the bait, averaged over …"}, {"variant": "chain 1 S9H", "screen value": "0.000148 average fractional NGS count over selection days 2 and 3 (reads of this peptide / all reads for the bait, averaged over …"}, {"variant": "chain 1 S9T", "screen value": "0.000558 average fractional NGS count over selection days 2 and 3 (reads of this peptide / all reads for the bait, averaged over …"}, {"variant": "chain 1 T1Q", "screen value": "0.00112 average fractional NGS count over selection days 2 and 3 (reads of this peptide / all reads for the bait, averaged over …"}, {"variant": "chain 1 T1A", "screen value": "0.00341 average fractional NGS count over selection days 2 and 3 (reads of this peptide / all reads for the bait, averaged over …"}, {"variant": "chain 1 T1R", "screen value": "0.00306 average fractional NGS count over selection days 2 and 3 (reads of this peptide / all reads for the bait, averaged over …"}, {"variant": "chain 1 T1Y", "screen value": "0.000499 average fractional NGS count over selection days 2 and 3 (reads of this peptide / all reads for the bait, averaged over …"}, {"variant": "chain 1 T1S", "screen value": "0.00255 average fractional NGS count over selection days 2 and 3 (reads of this peptide / all reads for the bait, averaged over …"}, {"variant": "chain 1 T1M", "screen value": "0.000328 average fractional NGS count over selection days 2 and 3 (reads of this peptide / all reads for the bait, averaged over …"}, {"variant": "chain 1 E3L", "screen value": "0.00278 average fractional NGS count over selection days 2 and 3 (reads of this peptide / all reads for the bait, averaged over …"}, {"variant": "chain 1 E3Q", "screen value": "0.000394 average fractional NGS count over selection days 2 and 3 (reads of this peptide / all reads for the bait, averaged over …"}, {"variant": "chain 1 E3K", "screen value": "0.00138 average fractional NGS count over selection days 2 and 3 (reads of this peptide / all reads for the bait, averaged over …"}, {"variant": "chain 1 E3R", "screen value": "0.000973 average fractional NGS count over selection days 2 and 3 (reads of this peptide / all reads for the bait, averaged over …"}, {"variant": "chain 1 P10I", "screen value": "0.00026 average fractional NGS count over selection days 2 and 3 (reads of this peptide / all reads for the bait, averaged over …"}, {"variant": "chain 1 P10N", "screen value": "0.00396 average fractional NGS count over selection days 2 and 3 (reads of this peptide / all reads for the bait, averaged over …"}, {"variant": "chain 1 P10S", "screen value": "0.00055 average fractional NGS count over selection days 2 and 3 (reads of this peptide / all reads for the bait, averaged over …"}, {"variant": "chain 1 P10G", "screen value": "0.00227 average fractional NGS count over selection days 2 and 3 (reads of this peptide / all reads for the bait, averaged over …"}, {"variant": "chain 1 P10V", "screen value": "0.000485 average fractional NGS count over selection days 2 and 3 (reads of this peptide / all reads for the bait, averaged over …"}, {"variant": "chain 1 W6R", "screen value": "0.000143 average fractional NGS count over selection days 2 and 3 (reads of this peptide / all reads for the bait, averaged over …"}, {"variant": "chain 1 Y8P", "screen value": "0.000696 average fractional NGS count over selection days 2 and 3 (reads of this peptide / all reads for the bait, averaged over …"}, {"variant": "chain 1 Y8F", "screen value": "0.00543 average fractional NGS count over selection days 2 and 3 (reads of this peptide / all reads for the bait, averaged over …"}, {"variant": "chain 1 Y8R", "screen value": "0.0156 average fractional NGS count over selection days 2 and 3 (reads of this peptide / all reads for the bait, averaged over …"}, {"variant": "chain 1 Y8D", "screen value": "0.00213 average fractional NGS count over selection days 2 and 3 (reads of this peptide / all reads for the bait, averaged over …"}, {"variant": "chain 1 L11W", "screen value": "0.000722 average fractional NGS count over selection days 2 and 3 (reads of this peptide / all reads for the bait, averaged over …"}, {"variant": "chain 1 L11G", "screen value": "0.000282 average fractional NGS count over selection days 2 and 3 (reads of this peptide / all reads for the bait, averaged over …"}, {"variant": "chain 1 L11M", "screen value": "0.000374 average fractional NGS count over selection days 2 and 3 (reads of this peptide / all reads for the bait, averaged over …"}, {"variant": "chain 1 H12Y", "screen value": "0.000256 average fractional NGS count over selection days 2 and 3 (reads of this peptide / all reads for the bait, averaged over …"}, {"variant": "chain 1 H12I", "screen value": "0.000636 average fractional NGS count over selection days 2 and 3 (reads of this peptide / all reads for the bait, averaged over …"}, {"variant": "chain 1 H12R", "screen value": "0.000172 average fractional NGS count over selection days 2 and 3 (reads of this peptide / all reads for the bait, averaged over …"}, {"variant": "chain 1 H12L", "screen value": "0.00133 average fractional NGS count over selection days 2 and 3 (reads of this peptide / all reads for the bait, averaged over …"}, {"variant": "chain 1 H12S", "screen value": "0.000155 average fractional NGS count over selection days 2 and 3 (reads of this peptide / all reads for the bait, averaged over …"}, {"variant": "chain 1 H12E", "screen value": "0.00161 average fractional NGS count over selection days 2 and 3 (reads of this peptide / all reads for the bait, averaged over …"}, {"variant": "chain 1 R4T", "screen value": "0.000696 average fractional NGS count over selection days 2 and 3 (reads of this peptide / all reads for the bait, averaged over …"}, {"variant": "chain 1 R4Q", "screen value": "0.00324 average fractional NGS count over selection days 2 and 3 (reads of this peptide / all reads for the bait, averaged over …"}, {"variant": "chain 1 R4F", "screen value": "0.00144 average fractional NGS count over selection days 2 and 3 (reads of this peptide / all reads for the bait, averaged over …"}, {"variant": "chain 1 R4E", "screen value": "0.00181 average fractional NGS count over selection days 2 and 3 (reads of this peptide / all reads for the bait, averaged over …"}, {"variant": "chain 1 R4K", "screen value": "0.000222 average fractional NGS count over selection days 2 and 3 (reads of this peptide / all reads for the bait, averaged over …"}, {"variant": "chain 1 R4L", "screen value": "0.00628 average fractional NGS count over selection days 2 and 3 (reads of this peptide / all reads for the bait, averaged over …"}, {"variant": "chain 1 R4H", "screen value": "0.00121 average fractional NGS count over selection days 2 and 3 (reads of this peptide / all reads for the bait, averaged over …"}, {"variant": "chain 1 R4V", "screen value": "0.00216 average fractional NGS count over selection days 2 and 3 (reads of this peptide / all reads for the bait, averaged over …"}, {"variant": "chain 1 R4N", "screen value": "0.00121 average fractional NGS count over selection days 2 and 3 (reads of this peptide / all reads for the bait, averaged over …"}, {"variant": "chain 1 V7R", "screen value": "0.00391 average fractional NGS count over selection days 2 and 3 (reads of this peptide / all reads for the bait, averaged over …"}, {"variant": "chain 1 V7S", "screen value": "0.00114 average fractional NGS count over selection days 2 and 3 (reads of this peptide / all reads for the bait, averaged over …"}, {"variant": "chain 1 V7Q", "screen value": "0.00122 average fractional NGS count over selection days 2 and 3 (reads of this peptide / all reads for the bait, averaged over …"}, {"variant": "chain 1 V7N", "screen value": "0.0129 average fractional NGS count over selection days 2 and 3 (reads of this peptide / all reads for the bait, averaged over …"}, {"variant": "chain 1 Y13W", "screen value": "0.000603 average fractional NGS count over selection days 2 and 3 (reads of this peptide / all reads for the bait, averaged over …"}, {"variant": "chain 1 Y13I", "screen value": "0.00816 average fractional NGS count over selection days 2 and 3 (reads of this peptide / all reads for the bait, averaged over …"}, {"variant": "chain 1 Y13H", "screen value": "0.000476 average fractional NGS count over selection days 2 and 3 (reads of this peptide / all reads for the bait, averaged over …"}, {"variant": "chain 1 Y13P", "screen value": "0.00124 average fractional NGS count over selection days 2 and 3 (reads of this peptide / all reads for the bait, averaged over …"}, {"variant": "chain 1 Y13T", "screen value": "0.000772 average fractional NGS count over selection days 2 and 3 (reads of this peptide / all reads for the bait, averaged over …"}, {"variant": "chain 1 S5V", "screen value": "0.0006 average fractional NGS count over selection days 2 and 3 (reads of this peptide / all reads for the bait, averaged over …"}, {"variant": "chain 1 S5Y", "screen value": "0.000589 average fractional NGS count over selection days 2 and 3 (reads of this peptide / all reads for the bait, averaged over …"}, {"variant": "chain 1 S5F", "screen value": "0.000252 average fractional NGS count over selection days 2 and 3 (reads of this peptide / all reads for the bait, averaged over …"}]}, {"variants_of": "B2", "assay": "proteomic peptide phage display deep mutational scan (ProP-PD DMS): M13 P8 16-mer library selected against immobilised GST-tagged bait for four days (rounds), NGS of the eluted pools per day and pseudo-replica; bait immobilised on MaxiSorp plates (10 µg), library pre-cleared on GST, 2 h binding at 4 °C, five washes; one round per day, days 1-4; value from days 2 and 3", "values": [{"variant": "chain 1 T3F", "screen value": "0.000452 average fractional NGS count over selection days 2 and 3 (reads of this peptide / all reads for the bait, averaged over …"}, {"variant": "chain 1 H4Q", "screen value": "0.00071 average fractional NGS count over selection days 2 and 3 (reads of this peptide / all reads for the bait, averaged over …"}, {"variant": "chain 1 T2P", "screen value": "0.000494 average fractional NGS count over selection days 2 and 3 (reads of this peptide / all reads for the bait, averaged over …"}, {"variant": "chain 1 T15Q", "screen value": "0.000103 average fractional NGS count over selection days 2 and 3 (reads of this peptide / all reads for the bait, averaged over …"}]}]}
